# Data taken from patent US20140093973A1.
# “And” between values parts separate entries of the source, which are not always exact repeats. Equal entries are not always repeated. Where two headings read alike, the source gives them in different places. Ends that are not written are not given here. * marks the point of attachment. FITC = O=C1OC2(c3ccc(O)cc3Oc3cc(O)ccc32)c2ccc(NC(=S)*)cc21
# Tests used:
# [1] = target: soluble HLA-A*0201 (sHLA-A*0201) (human)
# [2] = target: soluble HLA-A*0201 (sHLA-A*0201) (human); remark: listed apart in the source
# [3] = target: soluble HLA-A*0201 (sHLA-A*0201) (human); remark: listed apart in the source
# [4] = target: soluble HLA-A*0201 (sHLA-A*0201) (human); remark: listed apart in the source
# [5] = target: soluble HLA-A*0201 (sHLA-A*0201) (human); remark: listed apart in the source
# [6] = target: soluble HLA-A*0201 (sHLA-A*0201) (human); remark: listed apart in the source
# [7] = target: soluble HLA-A*0201 (sHLA-A*0201) (human); remark: listed apart in the source
# [8] = target: soluble HLA-A*0201 (sHLA-A*0201) (human); remark: listed apart in the source
# [9] = target: soluble HLA-A*0201 (sHLA-A*0201) (human); remark: listed apart in the source
# [10] = target: soluble HLA-A*0201 (sHLA-A*0201) (human); remark: listed apart in the source
# [11] = target: soluble HLA-A*0201 (sHLA-A*0201) (human); remark: listed apart in the source
# [12] = target: soluble HLA-A*0201 (sHLA-A*0201) (human); remark: listed apart in the source
# [13] = target: soluble HLA-A*0201 (sHLA-A*0201) (human); remark: listed apart in the source
# [14] = target: soluble HLA-A*0201 (sHLA-A*0201) (human); remark: listed apart in the source
# [15] = target: soluble HLA-A*0201 (sHLA-A*0201) (human); remark: listed apart in the source
# [16] = target: soluble HLA-A*0201 (sHLA-A*0201) (human); remark: listed apart in the source
# [17] = target: soluble HLA-A*0201 (sHLA-A*0201) (human); remark: listed apart in the source
# [18] = target: soluble HLA-A*0201 (sHLA-A*0201) (human); experiment: FP kinetics, Kd = koff/kon
# [19] = target: soluble HLA-A*0201 (sHLA-A*0201) (human); experiment: FP equilibrium titration with variable pFITC, 425 nM sHLA-A*0201, 20 C
# [20] = target: soluble HLA-A*0201 (sHLA-A*0201) (human); experiment: FP real-time association kinetics, 50 ug/mL sHLA-A*0201, excess b2m, 20 C
# [21] = target: soluble HLA-A*0201 (sHLA-A*0201) (human); experiment: FP real-time association kinetics, intercept of kob against ligand concentration
# [22] = target: soluble HLA-A*0201 (sHLA-A*0201) (human); experiment: FP, pFITC P4 titrated at 425 nM (20 µg/ml) sHLA-A*0201; FPmin = 27.00 mP
# [23] = target: soluble HLA-A*0201 (sHLA-A*0201) (human); experiment: FP, sHLA-A*0201 titrated against 10 nM FITC-labeled P4, plateau of the fit
# [24] = target: soluble HLA-A*0201 (sHLA-A*0201) (human); experiment: FP saturation isotherm (bound against free pFITC), 425 nM sHLA-A*0201, one-site fit
# [25] = target: soluble HLA-A*0201 (sHLA-A*0201) (human); experiment: FP, sHLA-A*0201 titrated against 10 nM FITC-labeled P4; the EC50 is an sHLA concentration
# [26] = target: soluble HLA-A*0201 (sHLA-A*0201) (human); experiment: standardized FP competition against 1 nM FITC-P5, 50 ug/mL sHLA-A*0201, excess b2m
binder,measurement,setting,value
KLGEFYNQMM (modifications not checked),IC50,[1],2820 nM
same,IC50,[2],2480 to 10500 nM
same,IC50,[3],596 nM
same,log IC50,[4],3.31 log nM and 3.7 log nM and 3.67 log nM
same,IC50,[5],3060 nM
same,log IC50,[6],3.08 log nM and 3.45 log nM
same,IC50,[7],10500 nM
same,IC50,[8],2480 nM
same,IC50,[9],2870 nM
same,IC50,[10],7670 nM
"ALMDKVLK(FITC)V [A*0201/P5, FITC-labeled peptide ALMDKVL-K(FITC)-V]",Kd,[11],17.3 nM
same,% binding,[12],40%
same,maximal FP signal,[13],220 to 230 mP
same,increase of signal upon binding,[14],> 900%
same,maximum polarization signal,[14],245 mP
same,EC50,[15],327 nM
same,FPmax,[16],195 mP
same,Bmax,[17],141 nM
same,Kd,[17],17.3 nM
"LVFGKEVVEV (not fully specified) [A*0201/P4, FITC-labeled peptide …]",Kd,[18],28.5 nM
same,Kd,[19],21.8 nM
same,kon,[20],9900 M⁻¹ s⁻¹
same,koff,[21],0.000284 s⁻¹
same,FPmax,[22],200 mP
same,FPmax,[23],230 mP
same,Bmax,[24],89.7 nM
same,Kd,[24],21.8 nM
same,EC50,[25],283 nM
YLLPAIVHI (modifications not checked),IC50,[26],510 nM
DLVHFASPL (modifications not checked),IC50,[1],366000 nM
